Measurements: article PMC4786802, “Structure-Based Virtual Ligand Screening on the XRCC4/DNA Ligase IV Interface” (Scientific Reports, 2016)

Biological target: T1, XRCC4 (residues 1-336) (human, UniProt Q13426 1-336)
T1 construct: XRCC4, human, residues 1-336; The copies value of 2 rests on the introduction's words (one XRCC4 homodimer and one Lig4 monomer in the active complex), not on a measurement made here; also called X4
Assay: differential scanning fluorimetry; Lig4 C-ter and XRCC4 equimolar at 5 uM in 20 mM HEPES pH 7.5, 100 mM KCl, 2 mM EDTA, 1 mM DTT, 66 mM NDSB-195, 10% glycerol, 10X SYPRO Orange; heated from 20 to 89 °C
Conditions: both partners purified

T1 sequence (Q13426 whole entry, the tested form may be a part): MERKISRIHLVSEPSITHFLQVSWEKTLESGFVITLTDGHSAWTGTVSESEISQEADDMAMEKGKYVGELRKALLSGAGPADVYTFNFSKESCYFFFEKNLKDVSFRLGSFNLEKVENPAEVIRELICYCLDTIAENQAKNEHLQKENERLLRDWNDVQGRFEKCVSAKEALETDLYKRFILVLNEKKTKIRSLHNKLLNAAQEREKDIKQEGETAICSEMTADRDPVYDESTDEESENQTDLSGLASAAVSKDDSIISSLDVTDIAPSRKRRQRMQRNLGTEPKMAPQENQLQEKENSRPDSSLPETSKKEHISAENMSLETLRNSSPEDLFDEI

- binding result: binds
B1: WT Lig4 C-ter domain (654-911) (domain or fragment, human, UniProt P49917 654-911, looked up)
chain: KISNIFEDVEFCVMSGTDSQPKPDLENRIAEFGGYIVQNPGPDTYCVIAGSENIRVKNIILSNKHDVVKPAWLLECFKTKSFVPWQPRFMIHMCPSTKEHFAREYDCYGDSYFIDTDLNQLKEVFSGIKNSNEQTPEEMASLIADLEYRYSWDCSPLSMFRRHTVYLDSYAVINDLSTKNEGTRLAIKALELRFHGAKVVSCLAEGVSHVIIGEDHSRVADFKAFRRTFKRKFKILKESWVTDSIDKCELQEENQYLI
notes: DNA ligase IV (Lig4), human, C-terminal fragment with the two BRCT domains and the clamp domain, residues 654-911; also called Lig4 C-ter fragment; C-ter Lig4 protein; source: Escherichia coli BL21 (DE3), purified (HisTrap HP, HiTrap Q HP)
